Patent US20200369772A1 (ABBA THERAPEUTICS, published 2020)
Substitutions are numbered along the chain they refer to. Names and notes keep the numbering of the source. Each block holds one binder with its values, some of them ahead of it.

Experiments:
[1] = target: T1, human PD-L2 (full-length, on cells) (human, UniProt Q9BQ51 20-273); experiment: FACS blocking of PD-1 binding to CHO-K1/hPD-L2; high antigen concentration
T1 chain: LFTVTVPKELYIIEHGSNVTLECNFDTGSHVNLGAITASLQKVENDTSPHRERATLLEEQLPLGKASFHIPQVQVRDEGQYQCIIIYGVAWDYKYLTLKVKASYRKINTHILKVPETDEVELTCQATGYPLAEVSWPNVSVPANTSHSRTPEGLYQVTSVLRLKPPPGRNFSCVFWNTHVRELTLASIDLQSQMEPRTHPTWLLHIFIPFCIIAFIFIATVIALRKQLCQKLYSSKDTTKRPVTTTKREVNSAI
Method in brief: (§1)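 CHO-K1 cells (1.5×10⁵) stably expressing human PD-L2 were incubated with serially diluted antibody (0.25 ng/ml-4 μg/ml) for 30 min at 4° C and washed. They were then incubated with 0.5 μg/ml recombinant human PD-1-mouse Fc for 30 min at 4° C and stained with fluorochrome-conjugated anti-mouse IgG2a (1:200) for 20 min at 4° C. Bound PD-1 was read by flow cytometry, with unspecific IgG wells setting 0% and 100% binding. IC50 came from non-linear curve fitting in GraphPad Prism.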

[2] = target: T1, human PD-L2 (full-length, on cells); experiment: FACS binding to CHO-K1 cells expressing human PD-L2
Method in brief: (§2)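 Binding EC50 values were derived in GraphPad Prism by non-linear curve fitting of percentage of maximal binding versus concentration. The binding data came from flow cytometry on a BD FACSCalibur, using CHO-K1 cells stably expressing full-length human PD-L2. Detection used APC-labelled anti-rat IgG or anti-human IgG Fc, according to the antibody format, applied for 20 min at 4° C.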

[3] = target: T1, human PD-L2 (full-length, on cells); experiment: FACS, NCI-H226 cells
Method in brief: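 Binding EC50 values come from non-linear fits, made in GraphPad Prism, of percentage of maximal binding plotted against concentration. The underlying binding to endogenous PD-L2 was measured by BD FACSCalibur flow cytometry on 1.5×10⁵ NCI-H226 human lung squamous carcinoma cells, with detection by APC-labelled goat anti-rat IgG (1:2000, 20 min, 4° C).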

[4] = target: T2, mouse PD-L2 (full-length, on cells) (mouse, UniProt Q9WUL5 20-247); experiment: FACS on HEK293 cells stably expressing full-length mouse PD-L2
T2 construct: whole, on cells; HEK293 cells stably expressing full-length mouse PD-L2
T2 sequence (looked up): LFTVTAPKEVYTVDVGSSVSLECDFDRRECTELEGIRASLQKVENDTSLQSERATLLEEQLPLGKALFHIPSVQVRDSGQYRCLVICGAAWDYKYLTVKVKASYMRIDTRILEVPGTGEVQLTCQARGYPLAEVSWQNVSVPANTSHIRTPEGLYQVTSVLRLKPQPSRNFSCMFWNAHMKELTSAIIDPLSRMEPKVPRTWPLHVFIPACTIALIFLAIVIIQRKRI
Experimental: (§3) The ability of anti-PD-L2 antibodies binding to mouse PD-L2, human PD-L1 or cyno PD-L2 was determined by FACS. HEK293 cells stably expressing full-length monkey PD-L2, mouse PD-L2 or human PD-L1 were established, subcloned and verified. For binding assay, 1.5×10⁵ cells in 100 μl of FACSwash buffer were incubated with individual anti-PD-L2 antibodies (0.5 μg/ml) for 30 min. After three times of washing, the cells were re-suspended in FACSwash buffer containing FITC-labelled goat-anti-rat IgG (Thermo Fisher, 1:1000) or APC-labelled goat-anti-ratIgG (Biolegend, Clone Poly4054) at a 1:2000 dilution for 20 min at 4° C., washed three times and subsequently subjected to FACS analysis. FACS data was analysed using FlowJo Software and depicted as histograms including secondary antibody only controls.

[5] = target: T3, recombinant human PD-L2-Fc-biotin (human, UniProt Q9BQ51 20-220, biotin); experiment: FACS blocking of hPD-L2 binding to HEK293T-hPD-1; low antigen concentration
T3 chain: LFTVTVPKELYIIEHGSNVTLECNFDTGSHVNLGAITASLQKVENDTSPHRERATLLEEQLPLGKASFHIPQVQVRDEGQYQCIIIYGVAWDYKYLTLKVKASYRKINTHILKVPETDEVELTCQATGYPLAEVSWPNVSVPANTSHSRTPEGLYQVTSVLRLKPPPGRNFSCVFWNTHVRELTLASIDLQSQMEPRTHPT
Method in brief: (§4)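 After 60 min at 4° C in 100 μl, mixtures of serially diluted antibody (0.03 ng/ml-0.5 μg/ml) and recombinant human PD-L2-Fc-biotin (5 ng/ml, 100 pM) were given 30 min at 4° C on 1.5×10⁵ HEK293 cells stably expressing human PD-1. Fluorochrome-conjugated streptavidin and flow cytometry measured the bound ligand against control wells marking 0% and 100% binding. IC50 values came from non-linear curve fitting in GraphPad Prism.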

[6] = target: T1, human PD-L2 (full-length, on cells); experiment: FACS, CHO-K1 expressing human PD-L2
Method in brief: as §2

[7] = target: T4, human PD-L1 (full-length, on cells) (human, UniProt Q9NZQ7 19-290); experiment: FACS on HEK293 cells stably expressing full-length human PD-L1
T4 construct: whole, on cells; HEK293 cells stably expressing full-length human PD-L1
T4 sequence (Q9NZQ7 19-290): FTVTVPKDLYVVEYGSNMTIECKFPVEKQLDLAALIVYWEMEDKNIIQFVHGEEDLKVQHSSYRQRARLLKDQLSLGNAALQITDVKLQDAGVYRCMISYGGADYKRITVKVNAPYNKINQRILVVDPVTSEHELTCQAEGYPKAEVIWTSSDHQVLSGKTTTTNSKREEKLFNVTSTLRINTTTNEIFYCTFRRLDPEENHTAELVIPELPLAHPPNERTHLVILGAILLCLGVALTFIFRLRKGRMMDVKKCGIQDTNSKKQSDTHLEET
Experimental: as §3

[8] = target: T3, recombinant human PD-L2-Fc-biotin; experiment: blocking of hPD-L2 binding to HEK293-hPD-1 cells
Method in brief: as §4

[9] = target: T1, human PD-L2 (full-length, on cells); experiment: blocking of hPD-1 binding to CHO-K1/hPD-L2 cells
Method in brief: as §1

[10] = target: T5, human PD-L2 (full-length, on cells) (human, UniProt Q9BQ51 20-273); experiment: FACS binding on cells expressing human PD-L2 (per the examples)
T5 construct: whole, on cells; CHO-K1 cells stably expressing full-length human PD-L2; also endogenous on NCI-H226 and transfected in Jurkat cells; also called hPD-L2; CHO-K1/hPD-L2
T5 sequence (looked up): T1 chain

[11] = target: T5, human PD-L2 (full-length, on cells); experiment: hybridoma supernatant screen on cells expressing human PD-L2
[12] = target: T2, mouse PD-L2 (full-length, on cells); experiment: FACS on HEK293T cells expressing mouse PD-L2
Experimental: (§5) HEK293T cells expressing mouse PD-L2 were incubated with chimeric anti-PD-L2 antibodies. Cells were washed and binding was detected with an FITC-labelled anti-rat IgG Ab (Thermo Fisher Scientific). Flow cytometric analyses were performed using a FACSCalibur flow cytometer (Becton Dickinson). PE-labelled anti-mouse PD-L2 clone TY25 served as positive control. All peaks overlap except for the positive control in FIG. 6F.
as §3

[13] = target: T4, human PD-L1 (full-length, on cells); experiment: FACS on HEK293T cells expressing human PD-L1
Experimental: as §5, with “human PD-L1” for “mouse PD-L2”, “anti-human PD-L1” for “anti-mouse PD-L2”, “MIH1” for “TY25”, “7F.” for “6F.”
as §3

[14] = target: T1, human PD-L2 (full-length, on cells); experiment: FACS binding to CHO-K1 cells expressing human PD-L2
Method in brief: as §2

B1: 2C4-E4 (antibody, V domains shown)
VH: QVQLVQSGAEVKKPGASVKVSCKASGYTFTGYVMHWVRQAPGQRLEWMGWINADNGITKYSQKFQGRVTITRDTSASTAYMELTNLRSEDTAVYYCARATRGFGEFYFDYWGQGNLVTVSS
VL: DIQMTQSPSTLSASVGDRVTITCRASQTISSWLAWYQQKPGKAPNLLIYKASSLESGVPSRFSGSGSGTEFTLTISSLQPDDFATYYCQQYYSYWTFGQGTKVEIK
notes: Both formats under this entry
- IC50 [1]: 0.612 nM
- EC50 [2]: 0.45 nM
- EC50 [3]: 0.134 nM
- binding result [4]: no binding (tested: 0.5 µg/ml)
- IC50 [5]: 0.0215 nM
- EC50 [6]: 0.485 nM
- binding result [7]: no binding (tested: 0.5 µg/ml)
- IC50 [8]: 0.02 nM
- IC50 [9]: 0.53 nM
- binding result [10]: binds

B2: 1A1-C2 (antibody, V domains shown)
VH: QVQLQESGPGLVKPSGTLSLTCAVSGGSIGSSYWWTWIRQSPGKGLEWIGEIFHSGPTNYTPSLKSRVTISVDKSKNQFSLQLRSVTAADTAVYYCARTTGTTGFYYGMDVWGQGTTVTVSS
VL: EVVLTQSPATLYVTPGERVTLSCRASQSVSSNLAWYQQKPGQAPRLLIYGASTRATGIPARFSGSGSGTEFTLTISSLQSEDFAVYYCQQFNNWPRTFGLGTKVEIT
- IC50 [1]: 0.706 nM
- EC50 [2]: 0.62 nM
- EC50 [3]: 0.254 nM
- binding result [4]: no binding (tested: 0.5 µg/ml)
- IC50 [5]: 0.0408 nM
- EC50 [6]: 0.6 nM
- binding result [7]: no binding (tested: 0.5 µg/ml)
- IC50 [8]: 0.03 nM
- IC50 [9]: 0.49 nM
- binding result [11]: binds

B5: 11C11-H5 (antibody, V domains shown)
VH: QVQLVESGGGVVQPGRSLRLSCAASGFAFSAYGMHWVRQAPGKGLEWVAISWYDGSNNYHADSVKGRFTISRDSSKNTLYLQMNSLRAEDTAVYYCAKSIGVARHYYYGMDVWGQGTTVTVSS
VL: SYELTQPPSVSVSPGQTASITCSGEELGDKYACWYQQKPGQSPVLVIYQDSKRPSGIPERFSGSNSGNAATLTISGTQAMDEADYYCQAWDSITVVFGGGTKLTVLG
notes: Both formats under this entry
- IC50 [1]: 0.527 nM
- EC50 [2]: 0.81 nM
- EC50 [3]: 0.131 nM
- binding result [4]: no binding (tested: 0.5 µg/ml)
- IC50 [5]: 0.0149 nM
- EC50 [6]: 0.346 nM
- binding result [7]: no binding (tested: 0.5 µg/ml)
- IC50 [8]: 0.012 nM
- IC50 [9]: 0.41 nM
- binding result [11]: binds

B6: 19C3-B3 (antibody, V domains shown)
VH: B5 VH
VL: B5 VL with V44L, V96I
notes: Both formats under this entry; also called 19C3-C3
- IC50 [1]: 0.454 nM
- EC50 [2]: 0.44 nM
- EC50 [3]: 0.102 nM
- binding result [4]: no binding (tested: 0.5 µg/ml)
- IC50 [5]: 0.0151 nM
- EC50 [6]: 0.311 nM
- binding result [7]: no binding (tested: 0.5 µg/ml)
- IC50 [8]: 0.013 nM
- IC50 [9]: 0.43 nM
- binding result [10]: binds

Other lines, results leading:

- IC50 [1]: 2.02 nM
- EC50 [2]: 1.09 nM
- EC50 [3]: 1.52 nM
- binding result [4]: no binding (tested: 0.5 µg/ml)
- IC50 [5]: 0.0563 nM
- EC50 [6]: 2.18 nM
- binding result [7]: no binding (tested: 0.5 µg/ml)
- IC50 [8]: 0.017 nM
- IC50 [9]: 0.94 nM
- binding result [11]: binds
B3: 8B5-B1 (antibody, V domains shown)
VH: EVQLLESGGGLVQPGGSLKLSCAASGFTFSSYAMFWVRQAPGEGLAWVSAITGSGDHTYYADSVKDHFTISRDNSKNTLYLQMNSLKAEDTAVYYCAKDASGNSYGFPYWYFDLWGRGTLVTVSS
VL: QSALTQPASVSGSPGQSITISCTGTSSDVAGYNFVSWYQHHPGKTPKLMIYDVTNRPSGVSTRFSGSKSGNTASLTISGLQAEDEADYYCSSFTSATTLVFGGGTKLTVLG
notes: Both formats under this entry

- binding result [12]: no binding
- binding result [13]: no binding
- binding result [10]: binds
- EC50 [14]: 0.32 nM
B4: 10D1-G1 N31Q.N92Q.LC (antibody, V domains shown)
VH: QVQLQESGPGLVKPSGTLSLTCAVSGGSISSSYWWSWVRQPPGKGLEWIGEIFHIGSTNYNPSLRSRVTISVVKSKNQFSLNLNSVTAADTAVYFCARVSGGYGYFSGMDVWGQGTTVTVSS
VL: DIQMTQSPSSLSASVGDRVTITCRASQGIRQDLGWYQQKPGKAPKRLIYGASSLQSGVPSRFSGSGSGTEFTLTISSLQPEDFATYYCLQHQSYPRTFGQGTKVEIK
notes: Optimized variant of 10D1-G1; also called 10D1-G1 N31Q.N920.LC
